# Reference: paper PMC9792355
# Legend:
# Experiment in all cases: luciferase complementation assay
# [1] = target: N1-fused SRC kinases (mean among the nine SRC kinases); conditions: HEK293T cells
# [2] = target: C1-fused SRC kinases (mean among the nine SRC kinases); conditions: HEK293T cells
# [3] = target: DomDIM1 SKAP1 mutant (DIM domain of SKAP1); conditions: HEK293T cells; read off a plot
# [4] = target: N2-SKAP2 DomDIM2 deletion mutant (DIM domain alone); conditions: HEK293T cells; read off a plot
# [5] = target: N2-SKAP2 (SRC kinase adaptor phosphoprotein 2, wildtype) (UniProt O75563); conditions: HEK293T cells, read off a plot
ratio to parent [1],ratio to parent [2],response (NLR normalized to HCK-N1) [3],response (NLR normalized to HCK-N1) [4],Substance,other results
1.64,1.48,,,"N2-SKAP2 (SRC kinase adaptor phosphoprotein 2, wildtype) (from UniProt O75563) W336K",
,,0.7,,"N1-fused HCK (hematopoietic cell kinase), wildtype (from UniProt P08631-2) Y390F",
0.93,1.04,,,"N2-SKAP2 (SRC kinase adaptor phosphoprotein 2, wildtype) (from UniProt O75563) V24D; F27G; V28E; D129K",
,,0.42,3.8,"C1-fused HCK (hematopoietic cell kinase), wildtype (from UniProt P08631-2) Y390F",
0.43,0.41,,,"N2-SKAP2 (SRC kinase adaptor phosphoprotein 2, wildtype) (from UniProt O75563) V24D; F27G; V28E",
0.8,0.71,,,"N2-SKAP2 (SRC kinase adaptor phosphoprotein 2, wildtype) (from UniProt O75563) Y151F; Y197F",
,,0.65,0.9,"N1-fused HCK (hematopoietic cell kinase), wildtype (from UniProt P08631-2) I309A; T311A",response (NLR normalized to HCK-N1) [5]: 1
1.3,1.19,,,"N2-SKAP2 (SRC kinase adaptor phosphoprotein 2, wildtype) (from UniProt O75563) E15A; R18A",
,,2.9,8.4,"C1-fused HCK (hematopoietic cell kinase), wildtype (from UniProt P08631-2) R150A",
0.41,0.48,,,"N2-SKAP2 (SRC kinase adaptor phosphoprotein 2, wildtype) (from UniProt O75563) E15A; R18A; V24D; F27G; V28E",
1.12,0.9,,,"N2-SKAP2 (SRC kinase adaptor phosphoprotein 2, wildtype) (from UniProt O75563) K161E",
1.55,2.27,,,"N2-SKAP2 (SRC kinase adaptor phosphoprotein 2, wildtype) (from UniProt O75563) D129K",
,,8.4,7.7,"N1-fused HCK (hematopoietic cell kinase), wildtype (from UniProt P08631-2) R150A",
0.84,0.86,,,"N2-SKAP2 (SRC kinase adaptor phosphoprotein 2, wildtype) (from UniProt O75563) R140M; D129K",
,,0.9,1.2,"N1-fused HCK (hematopoietic cell kinase), wildtype (from UniProt P08631-2) Y30F",
,,7,6.4,"N1-fused HCK (hematopoietic cell kinase), wildtype (from UniProt P08631-2) Y501F",
,,0.055,0.13,"C1-fused HCK (hematopoietic cell kinase), wildtype (from UniProt P08631-2) Y30F",
0.88,1.63,,,"N2-SKAP2 (SRC kinase adaptor phosphoprotein 2, wildtype) (from UniProt O75563) D129K; Y75F; Y237F; Y261F",
,,3.8,7.7,"C1-fused HCK (hematopoietic cell kinase), wildtype (from UniProt P08631-2) Y501F",
0.96,0.79,,,"N2-SKAP2 (SRC kinase adaptor phosphoprotein 2, wildtype) (from UniProt O75563) R140M",
0.76,1.01,,,"N2-SKAP2 (SRC kinase adaptor phosphoprotein 2, wildtype) (from UniProt O75563) Y75F; Y237F; Y261F",
,,0.07,0.29,"C1-fused HCK (hematopoietic cell kinase), wildtype (from UniProt P08631-2) I309A; T311A",response (normalized NLR) ([5]; parent: est. 85): 16; response (NLR normalized to HCK-N1) [5]: 0.1
,,,0.6,"N1-fused HCK (hematopoietic cell kinase), wildtype (from UniProt P08631-2) W234A",
